# The RNAGym collection of RNA variant scans (doi:10.1073/pnas.2313332121)
# This sample holds only a part of the variants without activity.
# B1: TPR 5TU (parent)
# chain: GGAUCUUCUCGAUCUAACAAAAAAGACAAAUCUGCCACAAAGCUUGAGAGCAUCUUCGGAUGCAGAGGCGGCAGCCUUCGGUGGCGCGAUAGCGCCAACGUUCUCAACUAUGACACGCAAAACGCGUGCUCCGUUGAAUGGAGUUUAUCAUG
# Variants of: B1
# Assay: polymerase ribozyme fitness, log enrichment relative to wild type (log ratio); higher = more active; in vitro selection for triplet polymerase activity
# Summary of the method: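 Genotype fitness is the logarithm of its enrichment divided by wild-type enrichment, using inverse-variance-weighted averages of replicates. That logarithm is base 2. Enrichment was measured by Illumina sequencing of input and output libraries from one triplicate in vitro selection round, with frozen incubation at −7 °C, on PCR-built, transcribed mutant libraries of each subunit of a heterodimeric triplet polymerase ribozyme, retaining genotypes with ≥10 input reads and ≥1 read per output.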
row,Variant,polymerase ribozyme fitness (log ratio)
1,GGAUCAUCUCGAUCUAACCAAAAUGACGAAUCUGCCACAAAGCUUGAGAGCAUCUUCGGAUGCAGAGGCGGCAGCCUUCGGUGGCGCGAUAGCGCCAACGUUCUCAACUAUGACACGCAAAACGCGUGCUCCGUUGAAUGCAGUUUAUCAUA,-3.96
2,GGAUCAUCUCGAUCUAACAAAAAAGACAAAUCUGCCACAAAGCUUGAGAGCAUCUUCGGAUGCAGAGGCGGCAGCCUUCGGUGGCGCGAUAGCGCUAACGUUCUCAACUAUGACACGCAAAACGCGUGCUCCGUUGAAUGGAGUUUAUCAUG,-0.0433
3,GGAUCAUCUCGAUCUAACAAAAAAGACAUAUCUGCCACAAAGCUUGAGAGCAUCUUCGGAUGCAGAGGCGGCAGCCUUCGAUGGCGCGAUACCGCCAACGUUCUCAACUAUGAUACGCAAAACGCGUGCUCCGUUGAAUGGAGUUUAUCAUG,≤ -4.2
4,GGAUCAUCUCGAUCUAACAAAAAAGACAAAUCUGCCACAAAGCUUGAGACCAUCUUAGGAUGCAGAGGCGGCAGCCUUCGGUUGCGAGAUAGCACCAACGUUCUCAACUAUGACACGCAAAACGCGUGCUCCGUUGAAUGGAGUUUAUCAUG,≤ -4.2
5,GGAUCAUCUCGAUCUAACGAAAAAGACAAAUCUGCCAGAAAGCUUGAGAGCAUCUUCGGAAGCAGAGGCGGCAGCCUUCGGUGGCGCGAUAGCCCCAACGUUGUCAACUAUGACACGCAAAACGCGUGCUCCGUUGAAUGGAGUUUAUCAUG,≤ -4.2
6,GGAUCAUCUCGAUGUAACAAAAAAGACAAAUCUACCACAAAGCUUGAGAGCAUCUUCGGAUGCAGAGGCGGCAGCCUUCGGUGGCGUGAUAGCGCCAACGUUCUUAACUAUGACACGCAAAACGCGUGCUCCGUUGAAUGGAGUGUAUCAUG,-4.05
7,GGAUCAUCUCGAUCUAACAAAAAAGACAAAUCUGCCACAAAGCUUGCGAGCAUCUUCGUAUGCAGAGGCGGCAGCCUUCGAUGGCGCGAUAGCGGCAACGUUCUCAACUAUGACACGCAAAACGCGUGCUCCGUUGAAUGCAGUUUAUCAUG,≤ -4.2
8,GGAUCAUCUCGAUCUAACAAAAAAGACAAAUCUGCCACAAAGCUUGAGAGCAUCUUCGGAUGCAGAGGCGGCAGCCUUCGGUGGCGCGAUAGCGCCAACGUUCUCGACUAUGACACCCAAAACGCGUGCUCCGUUGAAUGGAGUUUUUCAUG,-0.278
9,GGAUCAUCUCGAUCUAACAAAAAAGACGAAUCUGCCACAAAGCUUGAGAGCAUCUUCGGAUGCAGAGGCGGCGGCCUUCGGUGGCGCGAUAGGGCCAAAGUUCUCAACUAUGACACGCAAAACGCGUGCUACGUUGAAUGGAGUUUAUCAUG,-4.19
10,GGAUCAUCUCGAUCUAACAAAAAAGACAAAUCUGCCACUAAGCUUGAGAGCAUCUUCGGAUGCAGAGGCGGCAGCCUUCGGUGGCGCGAUAGCGCCAACGGUCUCAACUAUGACACGGAAAACGCGUGCUCCGUUGAAUGGAGUUUAUCAUG,≤ -4.2
11,GGAUCAUCUCGAUCUAACACAAAAGACAAACCUGCCACAAAGCUUGAGAGCAUCUUCGGAUGCAGAGGCGGCAGCCUUCGGUGGCGCGAUAGCGCAAACGUUCUCAACUAUGACACGCAAAACGCGCGCUCCGUUGAAUGGAGUUUAUCAUG,-1.86
12,GGAUCAUCUCGAUCUAAAAAUAAAGACAAAUCUGCCACAAAGCUUGAGAGCAUCUGCGGAUGCAGAGACGGCAGCCUUCGGUGGCGCGAUUGCGCCAACGUUCUCAACUAUGACACGCAAAACGCGUCCUCCGUUGAAAGGAAUUUAUCAUG,≤ -4.2
13,GGAUCAUCUCGAUCUAACAAAAAAGACAAAUCUGCCACAAAGCUUGAGAACAUCUUCGGAUGCAGAGGCGGCAGCCUUCGGUGGCGCGUUAUCGCCAACGUUCUCAACUAUGACACGCAAAACGCGUGCUCCGUUGGAUGGAGUUUAUCAUG,-3.34
14,GGAUCAUCUCGAUCUAACAAAAAAGACAAAUCUGCCACAAAGCUUGAGAGCAUAUUCGGAUGCAGAGGCGGCAGCCUUCGGUGGCGCGAUAGGGCCAACGUUCUCAACUAUGACACGCAAAACGCGUGCUCCGUUGAAUGGAGUUUAUCAUG,≤ -4.2
15,GGAUCAUCUCGAUCUAACAAAAAAGACAAAUCUGCCACAACGCUUGAGACCAUCUUCGGAUGCAGAGGCGGCAGCCUUCGGUGACGCGAUAGCGCCAACGUUCUCAACUAUGACACGCGAAACGCGUGCUCCGUUGAAUGGAGUUUAUCAUG,-3.27
16,GGAUCAUCUCGAUCUAACAAAAAAGACAAAUCUGCCUCAAAGCUUGAGAGCAUCUUCGGAUGCAGAGGCGGCAGCCUUCGGUGGCGCGAUAGCGCCAACGUUCUCAACUAUGACACGCAAAACACCUGCUCCGUUGAAUGGAGUUUAUCAUG,-2.83
17,GGAUCAUCUCGAUCUAACAAAAAAGACGAAUCUGCCACAAAGCUUGAGAGCAUCUUCGAAUGCAGAGGCGGCAGCCUUCGGUGGCGCGAUAGUGCCAAGGUUCUCAAAUAUGACACGCAAAACGCGUGCUCCGUUGAAUAUAGUUUAUCAUG,≤ -4.2
18,GGAUCAUCUCGAUCUAACAAAAAAGACAAAUCUGCCACAAAGCUUGAGAGCAUCUUGGGAUGCAGAGGCGGCAGCCUUCGGUGGCGCGAUAGCGCUAACGUUCUCAACUAUGACACGCAAAACGCGUGCUCCGUUGAAUGCAGUUUAUCAUG,-0.945
19,GGAUCAUCUCGAUCUAACCAAAAAGACAAAUCUGCCACAAAGCUUGAGAGCAUCUACGGAUGCAGAGGCGGCAGCCUUCGGUAGCGCGAUAGCGCCAACGUUCUCAACUAUGACACGCAAAACCCGUGCUCCGUUGAAUGGAGUUUAUCAUG,-1.45
